Measurements from patent US20200024322A1 (Eli Lilly, published 2020).
Changes are numbered by the printed parent chain. Numbered stars: 1 amine (or outer) side, 2 acyl side, 3 side chain; on linkers, the order of the positions; unused ones are H or OH. Square brackets hold non-standard residues; d marks the D form. Side chains are listed from the residue outwards. Ends that are not written are not given here. * marks the point of attachment. C20 diacid = O=C(O)CCCCCCCCCCCCCCCCCCC(=O)*; γGlu = O=C(O)[C@H](CCC(=O)[*:2])N[*:1]; αMeL = CC(C)C[C@](C)(N)C(=O)O; AEEA = NCCOCCOCC(=O)O; Aib = CC(C)(N)C(=O)O

T1: human GIP receptor (human, UniProt P48546 22-466)
T1 construct: whole, on cells; Used as crude membranes of stably transfected CHO cells; also called hGIPR
T1 sequence (looked up): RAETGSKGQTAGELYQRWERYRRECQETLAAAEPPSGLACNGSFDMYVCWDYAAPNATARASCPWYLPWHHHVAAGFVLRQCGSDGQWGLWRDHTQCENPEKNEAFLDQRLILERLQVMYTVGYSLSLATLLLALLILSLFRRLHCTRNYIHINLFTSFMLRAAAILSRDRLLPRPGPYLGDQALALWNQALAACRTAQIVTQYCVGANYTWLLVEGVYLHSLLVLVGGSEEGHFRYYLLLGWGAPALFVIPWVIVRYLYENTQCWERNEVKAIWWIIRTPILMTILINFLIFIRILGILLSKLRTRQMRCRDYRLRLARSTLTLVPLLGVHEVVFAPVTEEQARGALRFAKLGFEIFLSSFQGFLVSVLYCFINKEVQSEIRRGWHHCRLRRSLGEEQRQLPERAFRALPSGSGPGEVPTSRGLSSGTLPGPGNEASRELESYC

B1: Example 62 (peptide)
peptide: YXEGTFTSDYSIXLDKKAQXAFIEYLIEGG
modifications: Aib2; αMeL13; K17((2-[2-(2-Amino-ethoxy)-ethoxy]-acetyl)2-(γ-Glu)-CO-(CH2)18-CO2H); Aib20; C-terminal NH2
B2: Example 64 (peptide)
peptide: B1 peptide with K16S
modifications: Aib2; αMeL13; K17((2-[2-(2-Amino-ethoxy)-ethoxy]-acetyl)2-(γ-Glu)-CO-(CH2)18-CO2H); Aib20; C-terminal NH2
B3: Example 65 (peptide)
peptide: B1 peptide with K16T
modifications: Aib2; αMeL13; K17((2-[2-(2-Amino-ethoxy)-ethoxy]-acetyl)2-(γ-Glu)-CO-(CH2)18-CO2H); Aib20; C-terminal NH2
B4: Example 63 (peptide)
peptide: B1 peptide with K16E
modifications: Aib2; αMeL13; K17((2-[2-(2-Amino-ethoxy)-ethoxy]-acetyl)2-(γ-Glu)-CO-(CH2)18-CO2H); Aib20; C-terminal NH2
B5: Example 54 (peptide)
peptide: H[Aib]EGTFTSDYSI[αMeL]LDKK([AEEA-AEEA-γGlu-C20 diacid])AQHAFIEYLIEGGPSSGAPPPS-NH2
modifications: N-terminus assumed
SMILES: CC[C@H](C)[C@H](NC(=O)[C@H](CC(C)C)NC(=O)[C@H](Cc1ccc(O)cc1)NC(=O)[C@H](CCC(=O)O)NC(=O)[C@@H](NC(=O)[C@H](Cc1ccccc1)NC(=O)[C@H](C)NC(=O)[C@H](Cc1c[nH]cn1)NC(=O)[C@H](CCC(N)=O)NC(=O)[C@H](C)NC(=O)[C@H](CCCCNC(=O)COCCOCCNC(=O)COCCOCCNC(=O)CC[C@H](NC(=O)CCCCCCCCCCCCCCCCCCC(=O)O)C(=O)O)NC(=O)[C@H](CCCCN)NC(=O)[C@H](CC(=O)O)NC(=O)[C@H](CC(C)C)NC(=O)[C@](C)(CC(C)C)NC(=O)[C@@H](NC(=O)[C@H](CO)NC(=O)[C@H](Cc1ccc(O)cc1)NC(=O)[C@H](CC(=O)O)NC(=O)[C@H](CO)NC(=O)[C@@H](NC(=O)[C@H](Cc1ccccc1)NC(=O)[C@@H](NC(=O)CNC(=O)[C@H](CCC(=O)O)NC(=O)C(C)(C)NC(=O)[C@@H](N)Cc1c[nH]cn1)[C@@H](C)O)[C@@H](C)O)[C@@H](C)CC)[C@@H](C)CC)C(=O)N[C@@H](CCC(=O)O)C(=O)NCC(=O)NCC(=O)N1CCC[C@H]1C(=O)N[C@@H](CO)C(=O)N[C@@H](CO)C(=O)NCC(=O)N[C@@H](C)C(=O)N1CCC[C@H]1C(=O)N1CCC[C@H]1C(=O)N1CCC[C@H]1C(=O)N[C@@H](CO)C(N)=O
B6: Example 57 (peptide)
peptide: YXEGTXTSDYSILLDKKAQXAFIEYLIEGGPSSGAPPPS
modifications: Aib2; αMeF6; K17((2-[2-(2-Amino-ethoxy)-ethoxy]-acetyl)2-(γ-Glu)-CO-(CH2)18-CO2H); Aib20; C-terminal NH2
B7: Example 3 (peptide)
peptide: B6 peptide with L13X, K16X, A21E, E24X
modifications: Aib2; αMeF(2F)6; αMeL13; Orn16; K17((2-[2-(2-Amino-ethoxy)-ethoxy]-acetyl)2-(γ-Glu)-CO-(CH2)18-CO2H); Aib20; D-Glu24; C-terminal NH2
B8: Example 60 (peptide)
peptide: B6 peptide with X6F, L13X, K16X
modifications: Aib2; αMeL13; Aib16; K17((2-[2-(2-Amino-ethoxy)-ethoxy]-acetyl)2-(γ-Glu)-CO-(CH2)18-CO2H); Aib20; C-terminal NH2
B9: Example 68 (peptide)
peptide: B6 peptide with X6F, S11X
modifications: Aib2; αMeS11; K17((2-[2-(2-Amino-ethoxy)-ethoxy]-acetyl)2-(γ-Glu)-CO-(CH2)18-CO2H); Aib20; C-terminal NH2
B10: Example 67 (peptide)
peptide: B6 peptide with X6F, F22X
modifications: Aib2; K17((2-[2-(2-Amino-ethoxy)-ethoxy]-acetyl)2-(γ-Glu)-CO-(CH2)18-CO2H); Aib20; αMeF22; C-terminal NH2
B11: Example 115 (peptide)
peptide: B6 peptide with L13X, K16E
modifications: Aib2; αMeF6; αMeL13; K17((2-[2-(2-Amino-ethoxy)-ethoxy]-acetyl)2-(γ-Glu)-CO-(CH2)18-CO2H); Aib20; C-terminal NH2
B12: Example 69 (peptide)
peptide: B6 peptide with L13X
modifications: Aib2; αMeF6; αMeL13; K17((2-[2-(2-Amino-ethoxy)-ethoxy]-acetyl)2-(γ-Glu)-CO-(CH2)18-CO2H); Aib20; C-terminal NH2
B13: Example 142 (peptide)
peptide: B6 peptide with L13X, A21H
modifications: Aib2; αMeF6; αMeL13; K17((2-[2-(2-Amino-ethoxy)-ethoxy]-acetyl)2-(γ-Glu)-CO-(CH2)18-CO2H); Aib20; C-terminal NH2
B14: Example 145 (peptide)
peptide: B6 peptide with Y10A, L13X
modifications: Aib2; αMeF6; αMeL13; K17((2-[2-(2-Amino-ethoxy)-ethoxy]-acetyl)2-(γ-Glu)-CO-(CH2)18-CO2H); Aib20; C-terminal NH2
B15: Example 118 (peptide)
peptide: B6 peptide with L13X, K16E, A21E
modifications: Aib2; αMeF(2F)6; αMeL13; K17((2-[2-(2-Amino-ethoxy)-ethoxy]-acetyl)2-(γ-Glu)-CO-(CH2)18-CO2H); Aib20; C-terminal NH2
B16: Example 129 (peptide)
peptide: B6 peptide with Y10L
modifications: Aib2; αMeF6; K17((2-[2-(2-Amino-ethoxy)-ethoxy]-acetyl)2-(γ-Glu)-CO-(CH2)18-CO2H); Aib20; C-terminal NH2
B17: Example 150 (peptide)
peptide: B6 peptide with L13X, K16E, A21E, E24S
modifications: Aib2; αMeF(2F)6; αMeL13; K17((2-[2-(2-Amino-ethoxy)-ethoxy]-acetyl)2-(γ-Glu)-CO-(CH2)18-CO2H); Aib20; C-terminal NH2
B18: Example 149 (peptide)
peptide: B6 peptide with L13X, K16E, A21E, E24V
modifications: Aib2; αMeF(2F)6; αMeL13; K17((2-[2-(2-Amino-ethoxy)-ethoxy]-acetyl)2-(γ-Glu)-CO-(CH2)18-CO2H); Aib20; C-terminal NH2
B19: Example 119 (peptide)
peptide: B6 peptide with Y1F, L13X, K16E
modifications: Aib2; αMeF6; αMeL13; K17((2-[2-(2-Amino-ethoxy)-ethoxy]-acetyl)2-(γ-Glu)-CO-(CH2)18-CO2H); Aib20; C-terminal NH2
B20: Example 153 (peptide)
peptide: B6 peptide with L13X, K16E, A21E, E24H
modifications: Aib2; αMeF(2F)6; αMeL13; K17((2-[2-(2-Amino-ethoxy)-ethoxy]-acetyl)2-(γ-Glu)-CO-(CH2)18-CO2H); Aib20; C-terminal NH2
B21: Example 138 (peptide)
peptide: B6 peptide with L13X, A21S
modifications: Aib2; αMeF6; αMeL13; K17((2-[2-(2-Amino-ethoxy)-ethoxy]-acetyl)2-(γ-Glu)-CO-(CH2)18-CO2H); Aib20; C-terminal NH2
B22: Example 125 (peptide)
peptide: B6 peptide with L13X
modifications: Aib2; αMeF6; αMeL13; K17((2-[2-(2-Amino-ethoxy)-ethoxy]-acetyl)2-(γ-Glu)2-CO-(CH2)18-CO2H); Aib20; C-terminal NH2
B23: Example 140 (peptide)
peptide: B6 peptide with L13X, A21D
modifications: Aib2; αMeF6; αMeL13; K17((2-[2-(2-Amino-ethoxy)-ethoxy]-acetyl)2-(γ-Glu)-CO-(CH2)18-CO2H); Aib20; C-terminal NH2
B24: Example 128 (peptide)
peptide: B6 peptide with Y10H
modifications: Aib2; αMeF6; K17((2-[2-(2-Amino-ethoxy)-ethoxy]-acetyl)2-(γ-Glu)-CO-(CH2)18-CO2H); Aib20; C-terminal NH2
B25: Example 127 (peptide)
peptide: B6 peptide with Y10I
modifications: Aib2; αMeF6; K17((2-[2-(2-Amino-ethoxy)-ethoxy]-acetyl)2-(γ-Glu)-CO-(CH2)18-CO2H); Aib20; C-terminal NH2
B26: Example 116 (peptide)
peptide: B6 peptide with L13X, K16E, A21E
modifications: Aib2; αMeF6; αMeL13; K17((2-[2-(2-Amino-ethoxy)-ethoxy]-acetyl)2-(γ-Glu)-CO-(CH2)18-CO2H); Aib20; C-terminal NH2
B27: Example 126 (peptide)
peptide: B6 peptide with L13X, G29A
modifications: Aib2; αMeF6; αMeL13; K17((2-[2-(2-Amino-ethoxy)-ethoxy]-acetyl)2-(γ-Glu)-CO-(CH2)18-CO2H); Aib20; C-terminal NH2

molecular target: T2, human glucagon receptor (human, UniProt P47871 26-477); experiment: SPA, [125I]-Gcg displacement, hGcgR membranes
T2 construct: whole, on cells; Used as crude membranes of stably transfected HEK293 cells; also called hGcgR; hGLcgR
T2 sequence (P47871 26-477): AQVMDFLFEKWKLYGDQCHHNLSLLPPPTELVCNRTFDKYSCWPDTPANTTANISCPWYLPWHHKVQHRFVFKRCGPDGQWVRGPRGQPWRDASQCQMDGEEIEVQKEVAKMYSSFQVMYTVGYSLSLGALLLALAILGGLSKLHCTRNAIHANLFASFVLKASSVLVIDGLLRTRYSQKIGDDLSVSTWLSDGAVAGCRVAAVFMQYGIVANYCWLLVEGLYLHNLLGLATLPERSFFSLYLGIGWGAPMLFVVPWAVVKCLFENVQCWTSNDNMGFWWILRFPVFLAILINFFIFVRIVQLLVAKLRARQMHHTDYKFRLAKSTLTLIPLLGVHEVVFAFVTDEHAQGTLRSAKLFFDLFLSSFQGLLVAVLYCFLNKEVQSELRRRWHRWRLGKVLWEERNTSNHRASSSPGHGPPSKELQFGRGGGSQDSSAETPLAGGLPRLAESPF

Row | Binder | Ki
1 | B1 | 168 nM
2 | B2 | 260 nM
3 | B3 | 194 nM
4 | B4 | 273 nM
5 | B5 | 333 nM
6 | B6 | 26.1 nM
7 | B7 | 242 nM
8 | B8 | 237 nM
9 | B9 | 99.2 nM
10 | B10 | 270 nM
11 | B11 | 9.89 nM
12 | B12 | 22.1 nM
13 | B13 | 53.1 nM
14 | B14 | 158 nM
15 | B15 | 53 nM
16 | B16 | 14.9 nM
17 | B17 | 63.2 nM
18 | B18 | 127 nM
19 | B19 | 30.6 nM
20 | B20 | 43.8 nM
21 | B21 | 61.2 nM
22 | B22 | 54.4 nM
23 | B23 | 175 nM
24 | B24 | 433 nM
25 | B25 | 43.6 nM
26 | B26 | 137 nM
27 | B27 | 101 nM

molecular target: T3, human GLP-1 receptor (human, UniProt P43220 24-463); experiment: SPA, [125I]-GLP-1 displacement, hGLP-1R membranes
T3 construct: whole, on cells; Used as crude membranes of stably transfected HEK293 cells; also called hGLP1R; hGLP-1R

Row | Binder | Ki
28 | B1 | 2.03 nM
29 | B2 | 4.86 nM
30 | B3 | 4.53 nM
31 | B4 | 7.79 nM
32 | B5 | 1.66 nM
33 | B6 | 3 nM
34 | B7 | 2.23 nM
35 | B8 | 9.55 nM
36 | B9 | 1.58 nM
37 | B10 | 10.2 nM
38 | B11 | 3.43 nM
39 | B12 | 1.22 nM
40 | B13 | 1.06 nM
41 | B14 | 2.22 nM
42 | B15 | 6.1 nM
43 | B16 | 1 nM
44 | B17 | 30.5 nM
45 | B18 | 26.1 nM
46 | B19 | 9.87 nM
47 | B20 | 22.2 nM
48 | B21 | 0.926 nM
49 | B22 | 3.19 nM
50 | B23 | 1.46 nM
51 | B24 | 1.88 nM
52 | B25 | 1.86 nM
53 | B26 | 6.8 nM
54 | B27 | 1.46 nM

molecular target: T1, human GIP receptor; experiment: SPA, [125I]-GIP displacement, hGIPR membranes

Row | Binder | Ki
55 | B1 | 0.0545 nM
56 | B2 | 0.0866 nM
57 | B3 | 0.0643 nM
58 | B4 | 0.141 nM
59 | B5 | 0.965 nM
60 | B6 | 0.0583 nM
61 | B7 | 0.0458 nM
62 | B8 | 0.0655 nM
63 | B9 | 0.0243 nM
64 | B10 | 0.061 nM
65 | B11 | 0.0302 nM
66 | B12 | 0.03 nM
67 | B13 | 0.0275 nM
68 | B14 | 0.0652 nM
69 | B15 | 0.0859 nM
70 | B16 | 0.0278 nM
71 | B17 | 0.0649 nM
72 | B18 | 0.0708 nM
73 | B19 | 0.0925 nM
74 | B20 | 0.0578 nM
75 | B21 | 0.0295 nM
76 | B22 | 0.0624 nM
77 | B23 | 0.0474 nM
78 | B24 | 0.0625 nM
79 | B25 | 0.126 nM
80 | B26 | 0.0597 nM
81 | B27 | 0.0644 nM
